Measured values as given in patent publication US7097986 (dated 2006).

Biological target: T1, VEGFR-1/Ig (human, UniProt P17948)
T1 chain: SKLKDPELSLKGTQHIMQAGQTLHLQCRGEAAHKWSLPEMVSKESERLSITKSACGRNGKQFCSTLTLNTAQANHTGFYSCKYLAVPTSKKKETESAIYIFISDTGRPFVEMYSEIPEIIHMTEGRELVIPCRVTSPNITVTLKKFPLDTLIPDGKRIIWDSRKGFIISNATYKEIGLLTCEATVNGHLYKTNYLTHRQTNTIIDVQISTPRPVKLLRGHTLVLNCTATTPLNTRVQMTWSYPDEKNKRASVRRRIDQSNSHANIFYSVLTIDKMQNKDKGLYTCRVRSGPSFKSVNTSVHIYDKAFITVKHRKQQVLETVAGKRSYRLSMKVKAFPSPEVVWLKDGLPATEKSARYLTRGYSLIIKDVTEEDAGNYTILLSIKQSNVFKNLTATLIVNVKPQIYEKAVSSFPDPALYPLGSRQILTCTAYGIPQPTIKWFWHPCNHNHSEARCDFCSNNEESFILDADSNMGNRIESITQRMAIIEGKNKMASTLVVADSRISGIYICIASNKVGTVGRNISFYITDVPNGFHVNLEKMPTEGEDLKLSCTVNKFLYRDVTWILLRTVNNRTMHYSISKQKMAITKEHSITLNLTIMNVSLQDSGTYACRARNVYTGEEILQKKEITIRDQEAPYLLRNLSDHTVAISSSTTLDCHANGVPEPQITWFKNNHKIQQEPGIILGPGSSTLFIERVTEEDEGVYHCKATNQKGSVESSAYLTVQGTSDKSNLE
Assay: ELISA

binding result: no binding
B1: VEGF-DΔNΔC (protein)
chain: FYDIETLKVIDEEWQRTQCSPRETCVEVASELGKSTNTFFKPPCVNVFRCGGCCNEESLICMNTSTSYISKQLFEISVPLTSVPELVPVKVANHTGCKCLPTAPRHPYS
